PMC11758952, “A kinetic model for compound heterozygous pathogenic variants in Tyrosyl-tRNA synthetase gene YARS2-Associated neonatal phenotype” (The Journal of Biological Chemistry, 2024)

Biological target: the molecule itself
Assay: native gel or EMSA; native 8% PAGE of the unlinked enzyme (20 ug), 0.75 M Tris pH 8.8, 4 °C, 90 V for 3 h, Western blot (anti-His, anti-mt-TyrRS)

B1: human mitochondrial tyrosyl-tRNA synthetase (mt-TyrRS), WT/WT unlinked homodimer (enzyme, UniProt Q9Y2Z4 17-477, looked up)
chain: TLNLSVLLPLGLRKAHSGAQGLLAAQKARGLFKDFFPETGTKIELPELFDRGTASFPQTIYCGFDPTADSLHVGHLLALLGLFHLQRAGHNVIALVGGATARLGDPSGRTKEREALETERVRANARALRLGLEALAANHQQLFTDGRSWGSFTVLDNSAWYQKQHLVDFLAAVGGHFRMGTLLSRQSVQLRLKSPEGMSLAEFFYQVLQAYDFYYLFQRYGCRVQLGGSDQLGNIMSGYEFINKLTGEDVFGITVPLITSTTGAKLGKSAGNAVWLNRDKTSPFELYQFFVRQPDDSVERYLKLFTFLPLPEIDHIMQLHVKEPERRGPQKRLAAEVTKLVHGREGLDSAKRCTQALYHSSIDALEVMSDQELKELFKEAPFSEFFLDPGTSVLDTCRKANAIPDGPRGYRMITEGGVSINHQQVTNPESVLIVGQHILKNGLSLLKIGKRNFYIIKWLQL
notes: Construct provided by R. Giege; also called YARS2 enzyme; not shown: His-tag, C-terminal, kept
Question: Does B1 bind?
Answer: binds

B2: human mitochondrial tyrosyl-tRNA synthetase F185L, F185L/F185L unlinked homodimer (enzyme, UniProt Q9Y2Z4 17-477, looked up)
chain: TLNLSVLLPLGLRKAHSGAQGLLAAQKARGLFKDFFPETGTKIELPELFDRGTASFPQTIYCGFDPTADSLHVGHLLALLGLFHLQRAGHNVIALVGGATARLGDPSGRTKEREALETERVRANARALRLGLEALAANHQQLFTDGRSWGSFTVLDNSAWYQKQHLVDLLAAVGGHFRMGTLLSRQSVQLRLKSPEGMSLAEFFYQVLQAYDFYYLFQRYGCRVQLGGSDQLGNIMSGYEFINKLTGEDVFGITVPLITSTTGAKLGKSAGNAVWLNRDKTSPFELYQFFVRQPDDSVERYLKLFTFLPLPEIDHIMQLHVKEPERRGPQKRLAAEVTKLVHGREGLDSAKRCTQALYHSSIDALEVMSDQELKELFKEAPFSEFFLDPGTSVLDTCRKANAIPDGPRGYRMITEGGVSINHQQVTNPESVLIVGQHILKNGLSLLKIGKRNFYIIKWLQL
notes: Paternally inherited variant of the patient; also called p.F185L; not shown: His-tag, C-terminal, kept
Question: Does B2 bind?
Answer: binds
